Data reported in patent publication US20160264649A1.

Key:
Experiment in all cases: cell-based or functional assay
[1] = target: HIV-1 Env of isolate 98IN022 (HIV-1)
[2] = target: HIV-1 Env of isolate MGRM-Chronic-B-020 (HIV-1)
[3] = target: HIV-1 Env of isolate MGRM-Chronic-B-017 (HIV-1)
[4] = target: HIV-1 Env of isolate MGRM-Chronic-B-003 (HIV-1)
[5] = target: HIV-1 Env of isolate JRCSF (HIV-1) (UniProt P20871)
[6] = target: HIV-1 Env of isolate TRJ04551.58 (HIV-1)
[7] = target: HIV-1 Env of isolate 6535.3 (HIV-1)
[8] = target: HIV-1 Env of isolate NL43 (HIV-1)
[9] = target: HIV-1 Env of isolate MGRM-Chronic-B-010 (HIV-1)
[10] = target: HIV-1 Env of isolate MGRM-Chronic-B-001 (HIV-1)
[11] = target: HIV-1 Env of isolate PVO.4 (HIV-1)
[12] = target: HIV-1 Env of isolate APV_17 (HIV-1)
[13] = target: HIV-1 Env of isolate MGRM-Chronic-B-004 (HIV-1)
[14] = target: HIV-1 Env of isolate QH0692.42 (HIV-1)
[15] = target: HIV-1 Env of isolate CAAN.A2 (HIV-1)
[16] = target: HIV-1 Env of isolate TRO.11 (HIV-1)
[17] = target: HIV-1 Env of isolate JRFL (HIV-1)
[18] = target: HIV-1 Env of isolate MGRM-Chronic-B-018 (HIV-1)
[19] = target: HIV-1 Env of isolate SF162 (HIV-1) (UniProt P19550)
[20] = target: HIV-1 Env of isolate VLGCB3 (HIV-1)
[21] = target: HIV-1 Env of isolate MGRM-Chronic-B-002 (HIV-1)
[22] = target: HIV-1 Env of isolate MGRM-Chronic-B-011 (HIV-1)
[23] = target: HIV-1 Env of isolate APV_6 (HIV-1)
[24] = target: HIV-1 Env of isolate 93MW959 (HIV-1)
[25] = target: HIV-1 Env of isolate 97ZA012 (HIV-1)
[26] = target: HIV-1 Env of isolate MGRM-Chronic-B-023 (HIV-1)
[27] = target: HIV-1 Env of isolate 93TH305 (HIV-1)
[28] = target: HIV-1 Env of isolate SC422661.8 (HIV-1)
[29] = target: HIV-1 Env of isolate MGRM-Chronic-B-024 (HIV-1)
[30] = target: HIV-1 Env of isolate 93IN905 (HIV-1)
[31] = target: HIV-1 Env of isolate MGRM-Chronic-B-008 (HIV-1)
[32] = target: HIV-1 Env of isolate MGRM-Chronic-B-012 (HIV-1)
[33] = target: HIV-1 Env of isolate APV_13 (HIV-1)
[34] = target: HIV-1 Env of isolate THR0.18 (HIV-1)
[35] = target: HIV-1 Env of isolate 92 BR 020 (HIV-1)

For PGT-128 monoclonal antibody (5114_A19), the neutralization IC50 [1] was 0.014 µg/mL, the neutralization IC50 [2] was 0.007 µg/mL and the neutralization IC50 [3] was over 50 µg/mL. The neutralization IC50 [4] was 0.007 µg/mL, the neutralization IC50 [5] was 0.003 µg/mL and the neutralization IC50 [6] was 0.019 µg/mL. It also gave a neutralization IC50 [7] of 0.011 µg/mL, a neutralization IC50 [8] of over 50 µg/mL and a neutralization IC50 [9] of 0.004 µg/mL. For the same substance, the neutralization IC50 [10] was over 50 µg/mL, the neutralization IC50 [11] was 0.005 µg/mL and the neutralization IC50 [12] was 0.016 µg/mL. For the same substance, the neutralization IC50 [13] was 0.009 µg/mL, the neutralization IC50 [14] was 0.029 µg/mL and the neutralization IC50 [15] was 1.48 µg/mL. It also gave a neutralization IC50 [16] of 0.018 µg/mL, a neutralization IC50 [17] of 0.007 µg/mL and a neutralization IC50 [18] of 0.02 µg/mL. It also gave a neutralization IC50 [19] of 0.007 µg/mL, a neutralization IC50 [20] of 0.012 µg/mL and a neutralization IC50 [21] of 0.036 µg/mL. The neutralization IC50 [22] was 0.02 µg/mL, the neutralization IC50 [23] was 0.007 µg/mL and the neutralization IC50 [24] was 0.045 µg/mL. For the same substance, the neutralization IC50 [25] was 0.019 µg/mL, the neutralization IC50 [26] was over 50 µg/mL and the neutralization IC50 [27] was 0.006 µg/mL. It also gave a neutralization IC50 [28] of 1.58 µg/mL, a neutralization IC50 [29] of over 50 µg/mL and a neutralization IC50 [30] of 0.009 µg/mL. It also gave a neutralization IC50 [31] of 0.143 µg/mL, a neutralization IC50 [32] of 0.026 µg/mL and a neutralization IC50 [33] of 0.008 µg/mL. For the same substance, the neutralization IC50 [34] was over 50 µg/mL and the neutralization IC50 [35] was 0.009 µg/mL.

In the case of PGT-130 monoclonal antibody (5147_N06), the neutralization IC50 [1] is reported as over 50 µg/mL, the neutralization IC50 [2] is reported as 0.014 µg/mL and the neutralization IC50 [3] is reported as over 50 µg/mL. For the same substance, the neutralization IC50 [4] was over 50 µg/mL, the neutralization IC50 [5] was 0.01 µg/mL and the neutralization IC50 [6] was 0.023 µg/mL. For the same substance, the neutralization IC50 [7] was 0.031 µg/mL, the neutralization IC50 [8] was over 50 µg/mL and the neutralization IC50 [9] was 0.006 µg/mL. The neutralization IC50 [10] was over 50 µg/mL, the neutralization IC50 [11] was 5.17 µg/mL and the neutralization IC50 [12] was 10.7 µg/mL. The neutralization IC50 [13] was 0.01 µg/mL, the neutralization IC50 [14] was over 50 µg/mL and the neutralization IC50 [15] was over 50 µg/mL. For the same substance, the neutralization IC50 [16] was 0.257 µg/mL, the neutralization IC50 [17] was 0.046 µg/mL and the neutralization IC50 [18] was 31.9 µg/mL. The neutralization IC50 [19] was 0.007 µg/mL, the neutralization IC50 [20] was 4.6 µg/mL and the neutralization IC50 [21] was over 50 µg/mL. For the same substance, the neutralization IC50 [22] was 0.153 µg/mL, the neutralization IC50 [23] was over 50 µg/mL and the neutralization IC50 [24] was 8.55 µg/mL. It also gave a neutralization IC50 [25] of 1.32 µg/mL, a neutralization IC50 [26] of over 50 µg/mL and a neutralization IC50 [27] of 0.021 µg/mL. The neutralization IC50 [28] was over 50 µg/mL, the neutralization IC50 [29] was 5.78 µg/mL and the neutralization IC50 [30] was 0.02 µg/mL. For the same substance, the neutralization IC50 [31] was 5.18 µg/mL, the neutralization IC50 [32] was 0.373 µg/mL and the neutralization IC50 [33] was 0.052 µg/mL. The neutralization IC50 [34] was over 50 µg/mL and the neutralization IC50 [35] was 1.4 µg/mL.
